Non-standard residues stand in square brackets, D forms with d. No end group written: not given here. pS = N[C@@H](COP(=O)(O)O)C(=O)O
B1: FITC-labeled p-1 phosphorylated MCC peptide (peptide)
peptide: HTNET[pS]L
modifications: also: FITC label (position not given here)
B2: p-1 phosphorylated MCC peptide (RPHTNETpSL-coo-) (peptide)
peptide: RPHTNET[pS]L-OH
modifications: N-terminus assumed
SMILES: CC(C)C[C@H](NC(=O)[C@H](COP(=O)(O)O)NC(=O)[C@@H](NC(=O)[C@H](CCC(=O)O)NC(=O)[C@H](CC(N)=O)NC(=O)[C@@H](NC(=O)[C@H](Cc1c[nH]cn1)NC(=O)[C@@H]1CCCN1C(=O)[C@@H](N)CCCNC(=N)N)[C@@H](C)O)[C@@H](C)O)C(=O)O
B3: p-3 phosphorylated RPS6KA2 peptide (MKRLTpSTRL-coo-) (peptide)
peptide: MKRLT[pS]TRL-OH
modifications: N-terminus assumed
SMILES: CSCC[C@H](N)C(=O)N[C@@H](CCCCN)C(=O)N[C@@H](CCCNC(=N)N)C(=O)N[C@@H](CC(C)C)C(=O)N[C@H](C(=O)N[C@@H](COP(=O)(O)O)C(=O)N[C@H](C(=O)N[C@@H](CCCNC(=N)N)C(=O)N[C@@H](CC(C)C)C(=O)O)[C@@H](C)O)[C@@H](C)O
B4: FITC-labeled p-3 phosphorylated RPS6KA2 peptide (peptide)
peptide: RLT[pS]TRL
modifications: also: FITC label (position not given here)
B5: Shank1 PDZ (domain or fragment)
chain: TVLLQKKDSEGFGFVLRGAKAQTPIEEFTPTPAFPALQYLESVDEGGVAWRAGLRMGDFLIEVNGQNVVKVGHRQVVNMIRQGGNTLMVKVVMVT

How the values were obtained:
[1] = target: FITC-labeled phosphomimetic TANC1 peptide (p-6 Ser to Glu) (human) (UniProt Q9C0D5); test: MST
FITC-labeled phosphomimetic TANC1 peptide (p-6 Ser to Glu) (human), sequence (Q9C0D5 whole entry, looked up, tested part not stated): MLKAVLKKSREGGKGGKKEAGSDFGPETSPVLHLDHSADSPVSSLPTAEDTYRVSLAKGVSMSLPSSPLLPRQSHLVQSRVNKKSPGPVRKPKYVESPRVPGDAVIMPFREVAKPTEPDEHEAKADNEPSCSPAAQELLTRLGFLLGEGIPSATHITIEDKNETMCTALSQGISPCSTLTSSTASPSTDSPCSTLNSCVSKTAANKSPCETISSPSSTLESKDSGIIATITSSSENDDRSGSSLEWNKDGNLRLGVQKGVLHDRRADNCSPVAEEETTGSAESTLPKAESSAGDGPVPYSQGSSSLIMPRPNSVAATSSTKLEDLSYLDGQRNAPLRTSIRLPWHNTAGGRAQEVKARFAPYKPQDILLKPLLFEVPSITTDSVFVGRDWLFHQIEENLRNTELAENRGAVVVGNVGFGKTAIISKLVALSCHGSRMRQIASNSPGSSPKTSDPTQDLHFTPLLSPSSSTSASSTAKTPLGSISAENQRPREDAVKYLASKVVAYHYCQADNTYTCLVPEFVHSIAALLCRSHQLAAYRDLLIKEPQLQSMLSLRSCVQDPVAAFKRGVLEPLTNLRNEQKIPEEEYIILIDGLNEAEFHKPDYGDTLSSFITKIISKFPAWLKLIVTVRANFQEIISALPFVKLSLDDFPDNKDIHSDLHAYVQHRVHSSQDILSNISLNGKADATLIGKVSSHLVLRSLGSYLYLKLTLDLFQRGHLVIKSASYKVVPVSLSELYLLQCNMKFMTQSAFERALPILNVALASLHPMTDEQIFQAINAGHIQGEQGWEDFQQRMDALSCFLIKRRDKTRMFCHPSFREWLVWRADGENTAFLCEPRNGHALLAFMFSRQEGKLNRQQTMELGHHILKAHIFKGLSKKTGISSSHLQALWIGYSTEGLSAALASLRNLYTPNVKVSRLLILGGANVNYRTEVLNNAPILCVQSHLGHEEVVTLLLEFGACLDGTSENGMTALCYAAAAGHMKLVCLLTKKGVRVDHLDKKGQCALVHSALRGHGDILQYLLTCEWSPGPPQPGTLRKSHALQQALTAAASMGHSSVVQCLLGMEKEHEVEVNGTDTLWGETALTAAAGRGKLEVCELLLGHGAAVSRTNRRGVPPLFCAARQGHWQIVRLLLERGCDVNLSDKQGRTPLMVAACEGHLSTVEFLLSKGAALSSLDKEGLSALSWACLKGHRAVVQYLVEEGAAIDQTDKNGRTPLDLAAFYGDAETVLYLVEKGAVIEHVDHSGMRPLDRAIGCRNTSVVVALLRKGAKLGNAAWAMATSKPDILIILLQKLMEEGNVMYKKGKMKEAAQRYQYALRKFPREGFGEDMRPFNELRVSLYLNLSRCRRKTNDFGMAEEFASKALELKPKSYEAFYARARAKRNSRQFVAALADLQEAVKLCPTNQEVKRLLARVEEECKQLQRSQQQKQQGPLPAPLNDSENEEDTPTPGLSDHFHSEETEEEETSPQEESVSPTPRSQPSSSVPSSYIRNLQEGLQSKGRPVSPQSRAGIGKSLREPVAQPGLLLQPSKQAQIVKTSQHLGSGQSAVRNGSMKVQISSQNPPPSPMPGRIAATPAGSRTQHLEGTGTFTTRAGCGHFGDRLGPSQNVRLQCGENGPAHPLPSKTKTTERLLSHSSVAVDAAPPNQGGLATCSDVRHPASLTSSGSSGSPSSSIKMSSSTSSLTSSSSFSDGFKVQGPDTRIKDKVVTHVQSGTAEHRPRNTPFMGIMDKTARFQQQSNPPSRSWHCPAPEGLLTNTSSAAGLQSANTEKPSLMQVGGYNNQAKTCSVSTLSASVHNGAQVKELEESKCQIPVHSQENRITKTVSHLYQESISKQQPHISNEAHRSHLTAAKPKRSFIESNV

[2] = target: FITC-labeled phosphomimetic RPS6KA2 peptide (p-3 Ser to Glu) (human) (UniProt Q15349); test: MST
FITC-labeled phosphomimetic RPS6KA2 peptide (p-3 Ser to Glu) (human), sequence (Q15349 whole entry, looked up, tested part not stated): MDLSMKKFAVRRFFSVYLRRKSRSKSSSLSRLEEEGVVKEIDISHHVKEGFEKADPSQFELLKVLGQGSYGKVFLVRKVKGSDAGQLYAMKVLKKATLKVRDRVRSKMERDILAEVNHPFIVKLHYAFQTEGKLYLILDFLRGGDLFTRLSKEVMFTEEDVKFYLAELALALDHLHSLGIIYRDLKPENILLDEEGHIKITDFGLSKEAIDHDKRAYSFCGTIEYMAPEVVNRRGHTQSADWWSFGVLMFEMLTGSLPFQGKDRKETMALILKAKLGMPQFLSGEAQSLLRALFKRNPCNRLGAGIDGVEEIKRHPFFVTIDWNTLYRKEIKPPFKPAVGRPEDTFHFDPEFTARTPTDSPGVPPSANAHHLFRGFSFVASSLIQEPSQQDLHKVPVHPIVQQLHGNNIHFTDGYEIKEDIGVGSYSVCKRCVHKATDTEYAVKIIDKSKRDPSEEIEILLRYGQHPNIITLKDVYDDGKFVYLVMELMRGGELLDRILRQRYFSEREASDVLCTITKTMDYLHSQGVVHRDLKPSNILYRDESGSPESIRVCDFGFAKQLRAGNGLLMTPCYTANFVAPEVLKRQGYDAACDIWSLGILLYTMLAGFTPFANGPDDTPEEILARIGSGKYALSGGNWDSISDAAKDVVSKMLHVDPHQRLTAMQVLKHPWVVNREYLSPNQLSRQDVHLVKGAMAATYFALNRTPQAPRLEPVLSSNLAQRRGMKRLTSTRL

[3] = target: FITC-labeled p-1 phosphorylated MCC peptide (human); test: MST
[4] = target: FITC-labeled p-6 phosphorylated TANC1 peptide (human); test: MST
[5] = target: FITC-labeled p-3 phosphorylated RPS6KA2 peptide (human); test: MST
Scribble PDZ1 [6] = target: T1, Scribble PDZ1 (human, UniProt Q14160 719-829); test: MST
T1 sequence (Q14160 719-829): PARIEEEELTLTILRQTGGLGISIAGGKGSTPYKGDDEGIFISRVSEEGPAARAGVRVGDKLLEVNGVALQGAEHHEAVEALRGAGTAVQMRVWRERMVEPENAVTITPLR

[7] = target: Scribble PDZ1 R762A/A743R (human, UniProt Q14160 719-829, R762A | A743R); test: ITC
Scribble PDZ1 R762A/A743R, sequence (Q14160 719-829 A743R/R762A): as the sequence (Q14160 719-829) above, with A25R, R44A counted along it

Scribble PDZ1 [8] = target: T1, Scribble PDZ1; test: ITC
Scribble PDZ1 R762A = Scribble PDZ1 R762A (human, UniProt Q14160 719-829, R762A); test: ITC
Scribble PDZ1 R762A, sequence (Q14160 719-829 R762A): as the sequence (Q14160 719-829) above, with R44A counted along it

Scribble PDZ1 K746A = Scribble PDZ1 K746A (human, UniProt Q14160 719-829, K746A); test: ITC
Scribble PDZ1 K746A, sequence (Q14160 719-829 K746A): as the sequence (Q14160 719-829) above, with K28A counted along it

Scribble PDZ1 R801A = Scribble PDZ1 R801A (human, UniProt Q14160 719-829, R801A); test: ITC
Scribble PDZ1 R801A, sequence (Q14160 719-829 R801A): as the sequence (Q14160 719-829) above, with R83A counted along it

[9] = target: B4; test: MST
[10] = target: B1; test: MST

DLG1 PDZ2 (domain or fragment) gave a fold lower affinity than for the unphosphorylated peptide [1] of 2.4 fold, a fold higher affinity than for the unphosphorylated peptide [2] of 7 fold and a fold lower affinity than for the unphosphorylated peptide [3] of 9 fold. The fold lower affinity than for the unphosphorylated peptide [4] was 2.9 fold and the fold higher affinity than for the unphosphorylated peptide [5] was 1.3 fold.

HTNETSL-OH (also: FITC label, position not given here) [FITC-labeled unphosphorylated MCC peptide (HTNETSL-coo-)]: binds (Scribble PDZ1 [6]).

Work on VRKLP[pS]TTL (also: FITC label, position not given here) [FITC-labelled phosphorylated RPS6KA1 peptide (S732, p-3)] yielded a Kd (Scribble PDZ1 [6]) of 390 nM.

In the case of VRKLPSTTL-OH (also: FITC label, position not given here) [FITC-labelled unphosphorylated RPS6KA1 peptide (VRKLPSTTL-coo-)], the Kd (Scribble PDZ1 [6]) is reported as 1000 nM.

B1: binds (Scribble PDZ1 [6]).

RPHTNETSL-OH [unphosphorylated MCC peptide (RPHTNETSL-coo-)]: binds [7]; binds (Scribble PDZ1 [8]); binds (Scribble PDZ1 R762A).

MKRLTSTRL-OH [unphosphorylated RPS6KA2 peptide (MKRLTSTRL-coo-)]: binds (Scribble PDZ1 K746A); binds [7]; binds (Scribble PDZ1 R801A). MKRLTSTRL-OH [unphosphorylated RPS6KA2 peptide (MKRLTSTRL-coo-)]: binds (Scribble PDZ1 [8]); binds (Scribble PDZ1 R762A).

In the case of B2, the binding result [7] is reported as “binds”, the “fold lower KD than for the unphosphorylated peptide” value (Scribble PDZ1 [8]) is reported as 2 fold and the binding result (Scribble PDZ1 R762A) is reported as “binds”.

B3: binds (Scribble PDZ1 K746A); binds [7]; binds (Scribble PDZ1 R801A). The “fold lower KD than for the unphosphorylated peptide” value (Scribble PDZ1 [8]) was 5 fold and the binding result (Scribble PDZ1 R762A) was “binds”.

RLTSTRL-OH (also: FITC label, position not given here) [FITC-labeled unphosphorylated RPS6KA2 peptide (RLTSTRL-coo-)]: binds (Scribble PDZ1 [6]).

B4: binds (Scribble PDZ1 [6]).

With B5 the “fold lower affinity than for the unphosphorylated peptide” value [9] was 3.6 fold and the “fold lower affinity than for the unphosphorylated peptide” value [10] was 3 fold.

RLTETRL (also: FITC label, position not given here) [FITC-labeled phosphomimetic RPS6KA2 peptide (p-3 Ser to Glu)]: binds (Scribble PDZ1 [6]).

KRSFIESNV-OH (also: FITC label, position not given here) [FITC-labeled unphosphorylated TANC1 peptide (KRSFIESNV-coo-)]: binds (Scribble PDZ1 [6]).

KR[pS]FIESNV (also: FITC label, position not given here) [FITC-labeled p-6 phosphorylated TANC1 peptide]: binds (Scribble PDZ1 [6]).

From article doi:10.1101/211250 (bioRxiv, 2017)
